Target: T1, biotinylated Mouse FAP extracellular domain (mouse, UniProt P97321 26-761, biotinylated (site not stated))
T1 construct: extracellular domain; also called murine antigen
T1 sequence (looked up): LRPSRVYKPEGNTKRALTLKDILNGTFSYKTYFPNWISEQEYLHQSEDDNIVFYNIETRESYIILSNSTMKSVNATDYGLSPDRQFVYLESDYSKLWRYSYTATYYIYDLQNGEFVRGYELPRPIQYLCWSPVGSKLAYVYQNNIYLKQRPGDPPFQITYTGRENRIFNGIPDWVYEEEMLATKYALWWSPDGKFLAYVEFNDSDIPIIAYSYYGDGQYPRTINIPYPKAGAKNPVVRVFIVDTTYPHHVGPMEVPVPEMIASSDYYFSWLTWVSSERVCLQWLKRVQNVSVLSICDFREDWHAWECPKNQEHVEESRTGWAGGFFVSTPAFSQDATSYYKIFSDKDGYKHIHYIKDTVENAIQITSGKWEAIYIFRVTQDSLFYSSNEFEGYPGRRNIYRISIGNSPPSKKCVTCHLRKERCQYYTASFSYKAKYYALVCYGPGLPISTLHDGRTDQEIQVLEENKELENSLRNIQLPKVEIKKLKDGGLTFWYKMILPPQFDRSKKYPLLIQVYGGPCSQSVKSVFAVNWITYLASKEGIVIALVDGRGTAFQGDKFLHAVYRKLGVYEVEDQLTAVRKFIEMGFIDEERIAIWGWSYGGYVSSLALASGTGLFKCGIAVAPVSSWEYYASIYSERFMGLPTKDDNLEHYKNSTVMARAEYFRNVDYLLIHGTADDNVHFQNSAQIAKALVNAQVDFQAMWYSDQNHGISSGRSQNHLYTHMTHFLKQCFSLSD
Experiment: ELISA, biotinylated FAP extracellular domain on streptavidin strips, detection with anti-Myc 9E10
Description: ELISA: Streptawell High Bind strips (Roche) were coated with biotinylated Human or Mouse FAP extracellular domain at 100 nM. Cross reactivity with human and murine antigen of the anti-FAP F5 antibody was assessed by detection with the anti-Myc antibody 9E10 and an HRP-conjugated anti-Murine Fc antibody (Sigma). Calorimetric detection of antibody-antigen binding was performed using BM-Blue POD soluble substrate (Roche).

binding result: binds
B1: antibody F5 (in scFv format) (scFv, V domains shown)
VH: EVQLLESGGGLVQPGGSLRLSCAASGFTFSPAYMSWVRQAPGKGLEWVSAISGSGGSTYYADSVKGRFTISRDNSKNTLYLQMNSLRAEDTAVYYCAKGWRAFDYWGQGTLVTVSS
VL: EIVLTQSPGTLSLSPGERATLSCRASQSVSRNYLAWYQQKPGQAPRLLIYGASSRATGIPDRFSGSGSGTDFTLTISRLEPEDFAVYYCQQSLGYPPTFGQGTKVEIK
notes: Tested as a single-chain Fv; Detection with anti-Myc antibody 9E10 implies a myc tag; also called F5 antibody; anti-FAP F5 antibody

Source: US20180186891A1 (PHILOGEN, published 2018)
